Source: US20210403552A1 (SHANGHAI GENBASE BIOTECHNOLOGY, published 2021)

Columns and labels:
human CLDN18.2 [1] = biological target: T1, human CLDN18.2 (human); assay: imaging cytometry (% fluorescent cells), OCUM1-hCLDN18.2 cells
T1 construct: over-expressed on HEK293T or OCUM-1 cells by lentivirus; KATO-III and NUGC4 gastric cancer cells express it naturally; also called hCLDN18.2; hCLDNA18.2
Source text: (§1) HEK293T-hCLDN18.2 and OCUM-1-hCLDN18.2 expressing human CLDN18.2 (hCLDN18.2), or HEK293T-mCLDN18.2 expressing mouse CLDN18.2 (mCLDN18.2) and the corresponding negative control cell line HEK293T were used; or HEK293T-hCLDN18.1 and CHOS-hCLDN18.1 expressing human CLDN18.1 (hCLDN18.1) were used. DyLight488 goat anti-mouse IgG (Abcam, Catalog No. ab97015) or DyLight488 goat anti-human IgG (Abcam, Catalog No. ab97003) was used as secondary antibody. Binding curves were generated by using the following method.
(§2) 10,000 cells were plated in 100 μL of DMEM containing 10% FBS per well in a flat-bottomed 96-well plate. After the cells adhered or were settled to the bottom of the wells overnight, the supernatant was removed on the next day. 3-Fold gradient dilution of antibody was performed by diluting 1/3 of the total volume (i.e., 100 μL) in 200 μL of DMEM. 100 μL of the diluted antibody (the supernatants of fused clones or subclones was used in the screening) was added to each well of the cell plate, 100 μL of DMEM was added to the corresponding negative control well, and incubation was carried out for 1 hour at room temperature. After removing the supernatant, 100 μL of secondary antibody (5 μg/mL, diluted in DMEM) was added to each well, and incubated at room temperature for 0.5 hours. The supernatant was removed after staining, followed by washing with PBS once. 100 μL of PBS was added to each well, and then reading was carried out on the cytometer.
(§3) A full-field scanning cytometer (Nexcelom, Celigo® Image Cytometer) was used to measure the readings of the experimental plate. During the measurement, high-speed scanning imaging of the cells in the well was simultaneously performed in the green fluorescent channel corresponding to the secondary antibody and in the bright field channel. The cells that bound the antibody were counted in the image obtained from the green fluorescent channel under the parameters set in accordance with the morphology and fluorescence intensity of the fluorescently labeled cells, and the adhered cells were counted in the image obtained from the bright field channel under the parameters set in accordance with the morphology of the cells.

human CLDN18.1 = biological target: T2, human CLDN18.1 (human, UniProt P56856 1-261); assay: imaging cytometry, CHOS-hCLDN18.1 cells
T2 construct: over-expressed on HEK293T or CHOS cells by lentivirus; also called hCLDN18.1
Source text: as §1, §2, §3

mouse CLDN18.2 = biological target: T3, mouse CLDN18.2 (mouse, UniProt P56857 10-264); assay: imaging cytometry (% fluorescent cells), HEK293-mCLDN18.2 cells
T3 construct: over-expressed on HEK293T cells by lentivirus; also called mCLDN18.2; murine CLDN18.2
T3 chain: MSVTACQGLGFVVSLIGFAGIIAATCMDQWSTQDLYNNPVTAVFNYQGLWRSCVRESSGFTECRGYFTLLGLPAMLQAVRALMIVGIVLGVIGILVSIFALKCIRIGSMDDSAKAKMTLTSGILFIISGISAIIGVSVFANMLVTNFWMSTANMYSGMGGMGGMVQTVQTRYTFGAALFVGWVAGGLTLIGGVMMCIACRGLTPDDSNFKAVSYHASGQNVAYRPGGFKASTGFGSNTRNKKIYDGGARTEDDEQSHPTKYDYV
Source text: as §1, §2, §3

human CLDN18.2 [2] = biological target: T1, human CLDN18.2; assay: imaging cytometry (% fluorescent cells), HEK293-hCLDN18.2 cells
Source text: as §1, §2, §3

human CLDN18.2 [3] = biological target: T1, human CLDN18.2; assay: cell-based or functional assay
human CLDN18.2 [4] = biological target: T1, human CLDN18.2; assay: imaging cytometry (% fluorescent cells), HEK293T-hCLDN18.2 cells
Method: as §2
as §3, with “cells. […] The data analysis was performed using GraphPad.” for “cells.”

human CLDN18.2 [5] = biological target: T1, human CLDN18.2; assay: cell-based or functional assay; remark: listed apart in the source

T2 sequence (P56856 whole entry): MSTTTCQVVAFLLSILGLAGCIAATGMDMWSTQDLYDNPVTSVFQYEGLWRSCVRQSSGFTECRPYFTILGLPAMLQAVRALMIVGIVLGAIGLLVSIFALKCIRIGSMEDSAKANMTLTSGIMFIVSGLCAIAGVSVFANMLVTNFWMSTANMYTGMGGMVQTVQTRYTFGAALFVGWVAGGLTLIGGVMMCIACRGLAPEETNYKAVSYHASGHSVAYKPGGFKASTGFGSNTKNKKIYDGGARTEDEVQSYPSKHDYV

| Binder | EC50 (human CLDN18.2 [1]) | binding result (human CLDN18.1) | EC50 (mouse CLDN18.2) | EC50 (human CLDN18.2 [2]) | ADCC EC50, HEK293T-hCLDN18.2 target cells, human PBMC effectors (human CLDN18.2 [3]) | EC50 (human CLDN18.2 [4]) | CDC EC50, HEK293T-hCLDN18.2 target cells, human serum (human CLDN18.2 [5]) |
| --- | --- | --- | --- | --- | --- | --- | --- |
| 10B11 (antibody, V domains shown, murine monoclonal antibody purified from hybridoma culture supernatant) VH: QVQMKESGAELVKPGASVKISCKASGYAFSTYWMDWVKQRPGKGLEWIGQIYPGNGDTNYNGKFKGKATLTADKSSSTADMQLSSLTSEDSAVYFCARLGYGNSFTYWGQGTLVTVSA VL: DIQVTQSPSSLTVTAGEKVTMSCKSSQSLLNSGNQKNYLTWYQQKPGQPPKLLIYWASTRESGVPDRFTGSGFGTDFTLTISSVQAEDLAVYYCQNAYFYPFTFGSGTKLEIK | 0.135 µg/mL | no binding | 0.035 µg/mL | 0.038 µg/mL |  |  |  |
| 27B5 (antibody, V domains shown, murine monoclonal antibody purified from hybridoma culture supernatant) VH: QVQLQQPGTELVKPGASVKLSCKASGYTFTSYWMHWVKQRPGQGLEWIGNIHPSNGGSNHNEKFKSKATLTVDKSSSTAYMQLSSLTSEDSAVYYCAPIYYGNSLAYWGHGTLVTVSA VL: DVVMTQSPSSLTVTAGEKVTMSCKSSQSLLNSGNQKNYLTWYQQKPGQPPKLLLYWASTRESGVPDRFTGSGSGTDFTLTISSVQAEDLAVYYCQNSYFYPFTFGSGTKLEIK | 0.142 µg/mL | no binding | 0.033 µg/mL | 0.041 µg/mL |  |  |  |
| 44A8 (antibody, V domains shown, murine monoclonal antibody purified from hybridoma culture supernatant) VH: EVRLQQSGPELVKPGASVKMSCKASGYTFTDYNMHWVKQSHGKSLEWIGYINPKNGGIRYNQKFTGKATLTVNKSSSTAYMELRSLTSEDSAVYYCARGGYYGNTLDNWGQGTSVTVSS VL: DIVMTQSPSSLTLTAGEKVTMSCKSSQSLLNSGNQKNYLTWYQQKPGQPPKLLIYWASTSESGVPDRFTGSGSGTDFTLTISSVQAEDLAIYYCQNAYFYPWTFGGGTKLEIK | 0.097 µg/mL | no binding | 0.026 µg/mL | 0.034 µg/mL |  |  |  |
| 37B1 (antibody, V domains shown, murine monoclonal antibody purified from hybridoma culture supernatant) VH: EVRLQQSGPELVKPGASVKMSCKASGYSFTDYNMHWVKQSHGKSPEWVGYINPNKGGTGYNQKFKGKATLTVNKSSSTANMELRSLTSEDSAVYYCARIWYGNSFAYWGQGTLVTVSA VL: DVVMTQSPSSLTVTAGEKVTMSCKSSQSLLNSGNQKNYLTWYQQKPGQPPKLLIYWASTRESGVPDRFTGSGSGTDFTLTISSVQAEDLAVYFCQNDYFYPFTFGSGTKLEIK | 0.146 µg/mL | no binding | 0.032 µg/mL | 0.04 µg/mL |  |  |  |
| 9F3-chIgG1 (antibody, V domains shown, human-mouse chimeric antibody, human IgG1/kappa constant regions) VH: EVRLQQSGPELVKPGASVKIPCKASGYKFTDYNMDWVKQSHGKSLEWIGEINPNNGGTIYNQKFKGKATLTVDKSSSTAYMELRSLTSEDTAVYYCARIYYGNSFAYWGQGTLVTVSS VL: DIVMTQSPSSLTVTAGEKVTMSCKSSQSLLNSGNLKNYLTWYQQKPGQPPKLLIYWASTRESGVPDRFTGSGSGTDFTLTISSVQAEDLAVYYCQNDYFYPLTFGAGTKLEIKR |  |  |  |  | 0.008 µg/mL | 0.104 µg/mL | 1.86 µg/mL |
| 10B11-chIgG1 (antibody, V domains shown, human-mouse chimeric antibody, human IgG1/kappa constant regions) VH: QVQMKESGAELVKPGASVKISCKASGYAFSTYWMDWVKQRPGKGLEWIGQIYPGNGDTNYNGKFKGKATLTADKSSSTADMQLSSLTSEDSAVYFCARLGYGNSFTYWGQGTLVTVSA VL: DIQVTQSPSSLTVTAGEKVTMSCKSSQSLLNSGNQKNYLTWYQQKPGQPPKLLIYWASTRESGVPDRFTGSGFGTDFTLTISSVQAEDLAVYYCQNAYFYPFTFGSGTKLEIKR |  |  |  |  | 0.001 µg/mL | 0.03 µg/mL | 1.65 µg/mL |
| 9F3 (antibody, V domains shown, murine monoclonal antibody purified from hybridoma culture supernatant) VH: EVRLQQSGPELVKPGASVKIPCKASGYKFTDYNMDWVKQSHGKSLEWIGEINPNNGGTIYNQKFKGKATLTVDKSSSTAYMELRSLTSEDTAVYYCARIYYGNSFAYWGQGTLVTVSS VL: DIVMTQSPSSLTVTAGEKVTMSCKSSQSLLNSGNLKNYLTWYQQKPGQPPKLLIYWASTRESGVPDRFTGSGSGTDFTLTISSVQAEDLAVYYCQNDYFYPLTFGAGTKLEIK | 0.15 µg/mL | no binding | 0.043 µg/mL | 0.053 µg/mL |  |  |  |
